The target in the experiment is T1, Prostacyclin synthase (PTGIS), truncated, His-tagged, with Avi-tag, biotinylated (UniProt Q16647 1-500, biotin (in vivo biotinylation of the Avi-tag)).
T1 construct: Prostacyclin synthase (PTGIS; EC 5.3.99.4), truncated (by the membrane domain); Held on the streptavidin (SA) chip; also called biotinylated PTGIS; PTGIS immobilized on the optical chip; source: E. coli BL21(DE3), purified (Ni-NTA, SEC)
T1 sequence (looked up): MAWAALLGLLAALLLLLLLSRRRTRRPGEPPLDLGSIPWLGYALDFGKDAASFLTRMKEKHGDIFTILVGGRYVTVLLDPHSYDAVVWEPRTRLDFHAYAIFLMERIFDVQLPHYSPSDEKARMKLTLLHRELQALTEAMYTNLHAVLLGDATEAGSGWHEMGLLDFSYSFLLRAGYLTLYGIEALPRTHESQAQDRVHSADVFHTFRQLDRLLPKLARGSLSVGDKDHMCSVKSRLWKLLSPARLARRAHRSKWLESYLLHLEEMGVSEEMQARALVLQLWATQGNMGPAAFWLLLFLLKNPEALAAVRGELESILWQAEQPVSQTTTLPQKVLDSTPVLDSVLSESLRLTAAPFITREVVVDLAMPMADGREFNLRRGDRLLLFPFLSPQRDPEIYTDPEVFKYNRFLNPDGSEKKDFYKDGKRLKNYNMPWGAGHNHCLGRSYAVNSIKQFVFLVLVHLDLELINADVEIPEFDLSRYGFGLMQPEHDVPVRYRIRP
The experiment in a line: SPR; biotinylated PTGIS on a streptavidin (SA) chip, purified protein injected as analyte; 25 °C, Biacore T-200. To be noted: both partners purified.

B1: Cytochrome P450 2J2 (CYP2J2), truncated and His-tagged (enzyme)
chain: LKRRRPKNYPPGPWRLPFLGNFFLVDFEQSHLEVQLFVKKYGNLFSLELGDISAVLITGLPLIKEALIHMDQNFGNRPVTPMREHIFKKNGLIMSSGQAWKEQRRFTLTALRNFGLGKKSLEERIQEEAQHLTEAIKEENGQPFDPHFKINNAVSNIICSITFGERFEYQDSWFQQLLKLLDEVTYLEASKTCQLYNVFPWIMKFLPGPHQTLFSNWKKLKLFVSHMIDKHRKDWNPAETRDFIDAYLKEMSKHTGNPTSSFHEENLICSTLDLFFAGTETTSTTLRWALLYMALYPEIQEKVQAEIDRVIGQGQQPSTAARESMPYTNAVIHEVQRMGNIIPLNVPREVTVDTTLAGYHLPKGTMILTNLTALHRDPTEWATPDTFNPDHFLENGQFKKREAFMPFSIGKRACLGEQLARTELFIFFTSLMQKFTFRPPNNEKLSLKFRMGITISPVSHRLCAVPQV
Turning to B1, the Kd worked out at 200 nM.
